B1: APB-Junction (dsDNA)
DNA 1: TGAGGTTCAGCAAGGTGATGCTTTAGATTTTTC
DNA 2: AGGCGGTCAGTATTAACACCGCCTGCAACAGTGCCACGCTGAGAGCCAGCAGCAAATGAAAAATCTAAAGCATCACCTTGCTGAACCTCA
modifications: APB on phosphorothioate dCMP at primer nt 33
B2: dd-Junction (dsDNA)
DNA 1: TGAGGTTCAGCAAGGTGATGCTTTAGATTTTTCA
DNA 2: AGGCGGTCAGTATTAACACCGCCTGCAACAGTGCCACGCTGAGAGCCAGCAGCAAATGAAAAATCTAAAGCATCACCTTGCTGAACCTCA
modifications: 3' ddAMP (primer nt 34); APB on S-dCMP at primer nt 33

Experiments:
CTF18-RFC;p261Nexo- = CTF18-RFC;p261Nexo- (human;human, UniProt Q8WVB6;Q9BVC3;P0CG13;P35250;P40938;P35249;P40937;Q07864 …, |D275A); experiment: photo-crosslinking
CTF18-RFC;PCNA = CTF18-RFC;PCNA (human;human, UniProt Q8WVB6;Q9BVC3;P0CG13;P35250;P40938;P35249;P40937;P12004 …, |); experiment: EMSA
CTF18-RFC = CTF18-RFC (human, UniProt Q8WVB6;Q9BVC3;P0CG13;P35250;P40938;P35249;P40937 …); experiment: EMSA

Binder | binding signal (CTF18-RFC;p261Nexo-) | binding result (CTF18-RFC;PCNA) | binding result (CTF18-RFC)
B1 | ~3 fold p261Nexo- crosslink vs alone (CTF18 5-fold) |  | 
B2 |  | no binding | no binding

— PMC5416766
